Source: publication PMC4128088 (Structure (London, England : 1993), 2014)

Target: the molecule itself
Experiment: SAXS

B1: Human Presequence Protease E107Q (hPreP E107Q) (enzyme, UniProt Q5JRX3 34-1037, looked up)
chain: CERALQYKLGDKIHGFTVNQVTSVPELFLTAVKLTHDDTGARYLHLAREDTNNLFSVQFRTTPMDSTGVPHILQHTVLCGSQKYPCRDPFFKMLNRSLSTFMNAFTASDYTLYPFSTQNPKDFQNLLSVYLDATFFPCLRELDFWQEGWRLEHENPSDPQTPLVFKGVVFNEMKGAFTDNERIFSQHLQNRLLPDHTYSVVSGGDPLCIPELTWEQLKQFHATHYHPSNARFFTYGNFPLEQHLKQIHEEALSKFQKIEPSTVVPAQTPWDKPREFQITCGPDSFATDPSKQTTISVSFLLPDITDTFEAFTLSLLSSLLTSGPNSPFYKALIESGLGTDFSPDVGYNGYTREAYFSVGLQGIAEKDIETVRSLIDRTIDEVVEKGFEDDRIEALLHKIEIQMKHQSTSFGLMLTSYIASCWNHDGDPVELLKLGNQLAKFRQCLQENPKFLQEKVKQYFKNNQHKLTLSMRPDDKYHEKQAQVEATKLKQKVEALSPGDRQQIYEKGLELRSQQSKPQDASCLPALKVSDIEPTIPVTELDVVLTAGDIPVQYCAQPTNGMVYFRAFSSLNTLPEELRPYVPLFCSVLTKLGCGLLDYREQAQQIELKTGGMSASPHVLPDDSHMDTYEQGVLFSSLCLDRNLPDMMQLWSEIFNNPCFEEEEHFKVLVKMTAQELANGIPDSGHLYASIRAGRTLTPAGDLQETFSGMDQVRLMKRIAEMTDIKPILRKLPRIKKHLLNGDNMRCSVNATPQQMPQTEKAVEDFLRSIGRSKKERRPVRPHTVEKPVPSSSGGDAHVPHGSQVIRKLVMEPTFKPWQMKTHFLMPFPVNYVGECIRTVPYTDPDHASLKILARLMTAKFLHTEIREKGGAYGGGAKLSHNGIFTLYSYRDPNTIETLQSFGKAVDWAKSGKFTQQDIDEAKLSVFSTVDAPVAPSDKGMDHFLYGLSDEMKQAHREQLFAVSHDKLLAVSDRYLGTGKSTHGLAILGPENPKIAKDPSWIIQ
stoichiometry N: 2
